Experimental findings from US20070003561A1 (published 2007) are described below.

Assay [1] deals with T1, Streptococcus pneumoniae surface adhesin A (PsaA) protein (Streptococcus pneumoniae, UniProt P0A4G2 20-309).
T1 construct: also called Pneumococcal surface adhesin A; recombinant PsaA
T1 sequence: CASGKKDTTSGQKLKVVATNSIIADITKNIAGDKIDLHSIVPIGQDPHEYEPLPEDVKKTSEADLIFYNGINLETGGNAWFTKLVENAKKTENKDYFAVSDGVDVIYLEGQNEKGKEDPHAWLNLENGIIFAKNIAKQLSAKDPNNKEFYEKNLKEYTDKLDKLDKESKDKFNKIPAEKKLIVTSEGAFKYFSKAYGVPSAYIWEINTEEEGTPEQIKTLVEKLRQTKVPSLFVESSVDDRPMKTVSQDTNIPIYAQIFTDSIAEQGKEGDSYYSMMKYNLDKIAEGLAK
In words: SPR (Biacore 3000), PsaA amine-coupled on CM5 chip, antibody in flow, 1:1 Langmuir fit.

The target of assay [2] is T1, Streptococcus pneumoniae surface …. The assay can be described thus: whole-bacteria ELISA, strain R6, Ab 5 ng/ml. (ELISA stands for enzyme-linked immunosorbent assay.)
Assay [3] shares this target. In words: whole-bacteria ELISA, strain R6, Ab 5 µg/ml.
Assay [4] shares this target. The assay can be described thus: whole-bacteria ELISA, strain 1, Ab 0.5 µg/ml.
Assay [5] shares this target. The assay can be described thus: whole-bacteria ELISA, strain 3, Ab 0.5 µg/ml.
Assay [6] shares this target. The assay can be described thus: whole-bacteria ELISA, strain 4, Ab 0.5 µg/ml.
For assay [7] the target is unchanged. In words: whole-bacteria ELISA, strain 8, Ab 0.5 µg/ml.
Assay [8] shares this target. The assay can be described thus: whole-bacteria ELISA, strain R6, Ab 50 ng/ml.
Assay [9] has the same target. The assay can be described thus: whole-bacteria ELISA, strain 14, Ab 0.5 µg/ml.
Assay [10] shares this target. The assay can be described thus: whole-bacteria ELISA, strain 6B, Ab 0.5 µg/ml.
Assay [11] has the same target. In words: whole-bacteria ELISA, strain 7F, Ab 0.5 µg/ml.
The target is the same in assay [12]. The assay can be described thus: whole-bacteria ELISA, strain 9V, Ab 0.5 µg/ml.
Assay [13] has the same target. The assay can be described thus: whole-bacteria ELISA, strain R6, Ab 0.5 ng/ml.
Assay [14] shares this target. In words: whole-bacteria ELISA, strain R6, Ab 0.5 µg/ml.
Assay [15] has the same target. In words: whole-bacteria ELISA, strain 12F, Ab 0.5 µg/ml.
Assay [16] shares this target. In words: whole-bacteria ELISA, strain 23F, Ab 0.5 µg/ml.
The target is the same in assay [17]. The assay can be described thus: whole-bacteria ELISA, strain D39, Ab 0.5 µg/ml.
The target in assay [18] is T2, fusion protein consisting of soluble CD64 linked to the Fc portion of human IgM (human, UniProt P12314 16-292; P01871 106-453, limits assumed).
T2 construct: Used as a culture supernatant; also called soluble CD64-IgM fusion protein
The assay can be described thus: bispecific sandwich ELISA: coated recombinant PsaA, detection with soluble CD64-IgM fusion and AP anti-human IgM.

T2 sequence (P12314 other isoform, or with tags, fused parts or gaps limits assumed): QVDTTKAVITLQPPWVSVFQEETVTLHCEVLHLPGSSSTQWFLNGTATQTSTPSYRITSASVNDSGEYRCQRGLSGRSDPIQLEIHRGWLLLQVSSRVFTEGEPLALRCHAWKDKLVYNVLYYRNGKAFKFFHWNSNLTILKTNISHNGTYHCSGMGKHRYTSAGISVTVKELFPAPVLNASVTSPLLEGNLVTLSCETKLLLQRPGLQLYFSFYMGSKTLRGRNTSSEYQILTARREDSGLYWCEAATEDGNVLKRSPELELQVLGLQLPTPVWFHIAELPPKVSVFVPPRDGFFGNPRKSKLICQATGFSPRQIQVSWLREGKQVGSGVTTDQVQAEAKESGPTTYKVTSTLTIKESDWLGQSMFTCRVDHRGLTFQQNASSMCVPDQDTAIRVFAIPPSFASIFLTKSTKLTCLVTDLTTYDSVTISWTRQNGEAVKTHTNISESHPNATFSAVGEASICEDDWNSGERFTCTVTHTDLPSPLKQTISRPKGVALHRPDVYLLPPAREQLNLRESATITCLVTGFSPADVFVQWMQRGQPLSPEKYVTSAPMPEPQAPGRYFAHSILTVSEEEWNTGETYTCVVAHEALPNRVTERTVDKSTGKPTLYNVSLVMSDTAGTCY

B1: Anti-PsaA 1-15E5 (antibody, V domains shown)
VH: EVQLVESGGGLVQPGGSLRLSCAASGFTFNIFGMSWVRQAPGKGLEWVANIKQDGSEKYYVDSVKGRFTISRDNAKNSLYLQMNSLRAEDTAVYYCARDRFYYGSGSYYYYYNGMDVWGQGTTVTVSS
VL: EIVLTQSPATLSLSPGERATLSCRASQSVSSYLAWYQQKPGQAPRLLIYDASNRATGIPARFSGSGSGTDFTLTISSLEPEDFAVYYCQQRSNWPLTFGGGTKVEI
notes: Fully human monoclonal antibody (HuMAb-Mouse), kappa light chain; also called clone 1-15E5.2.1; 1-1-15E5
B1: in assay [1], the Kd – broadly, the free concentration of one partner at which half of the binding sites on the other are occupied at equilibrium, for simple one-to-one binding – came out at 0.118 nM; the koff – broadly, the first-order rate constant of dissociation – is 6.72e-06 s⁻¹; the kon (commonly the rate constant with which the complex forms) was determined as 57100 M⁻¹ s⁻¹.

B2: Anti-PsaA 5-9A7 (antibody, V domains shown)
VH: EVQLVESGGGLVQPGGSLRLSCAASGFTFSSFWMSWVRQAPGKGLEWVANIKQDGSEKFYVDSVKGRFTISRDNAKNSLYLQMNSLRAEDTAVYYCARDRITMVRPYYYFYNGLDVWGQGTTVTVSS
VL: EIVLTQSPATLSLSPGERATLSCRASQSVSSYLAWYQQKPGQAPRLLIYDASNRATGIPARFSGSGSGTDFTLTISSLEPEDFAVYYCQQRSNWPPFTFGPGTKVDIK
notes: Fully human monoclonal antibody (HuMAb-Mouse), kappa light chain; also called clone 5-9A7
With B2, the “R6 ELISA (corrected)” value in [2] stood at 0.41; in [3], 1.39; in assay [8], 1.32; in assay [13], 0.26; in [14] it was 1.65. Moreover, the “ELISA (0.5 µg/ml) (corrected)” value came out at 0.4 in assay [4]; 1.31 in assay [5]; 0.33 in [6]; 1.52 in assay [7]; 1.42 in [9]; 0.39 in [10]. The “ELISA (0.5 µg/ml) (corrected)” value in assay [11] was 1.17; in assay [12], over 3; in assay [14], 1.39; in assay [15] it was 1.51; in assay [16] it was 0.37; in assay [17], 0.66. This molecule also registered a Kd in assay [1] of 0.0374 nM. The koff in assay [1] was 1.41e-05 s⁻¹. Moreover, the kon in [1] worked out at 377000 M⁻¹ s⁻¹.

B3: F(ab′)2 fragment of the anti-PsaA Ab 5-9A7 (other)
VH: B2 VH
VL: B2 VL
notes: F(ab′)2 made by pepsin digestion; also called anti-PsaA F(ab′)2; 5-9A7 F(ab′)2
For B3, the binding result in [18] was “no binding (tested: 1 µg/ml)”.

B4: Anti-PsaA 7-1G9 (antibody, V domains shown)
VH: QVRLQQWGAGLLKPSETLSLTCAVFGGSFSGFSWSWIRQTPGKGLEWIGEIDYRGSTNYNPSLKSRVTILRDTSRSQFSLKLSSVTAADSAVFYCARGGPRFDYWGQGTLVTVSS
VL: DIQMTQSPSSLSASVGDRVTITCRASQGISSWLAWYQQKPEKAPESLIYVASSLQSGVPSRFSGSGSGTDFTLTISSLQPEDFATYYCQQYNSYPPTFGQGTKVEIK
notes: Fully human monoclonal antibody (HuMAb-Mouse), kappa light chain; also called clone 7-1G9.1
For the molecule B4, the “R6 ELISA (corrected)” value in assay [2] worked out at 0.54; in assay [3], 1.36; in [8] it was 1.78; in assay [13] it was 0.31; in assay [14] it was 1.68. Besides, the “ELISA (0.5 µg/ml) (corrected)” value amounted to 0.35 in assay [4]; 1.24 in [5]; 0.33 in assay [6]; 1.5 in assay [7]; 1.32 in assay [9]; 0.4 in assay [10]. For the same molecule, the “ELISA (0.5 µg/ml) (corrected)” value in [11] was 1.06; in assay [12], over 3; in [14], 1.38; in assay [15], 1.46; in assay [16], 0.36; in assay [17], 0.68. This molecule also registered a Kd in assay [1] of 0.0634 nM. Further, the koff in [1] amounted to 2.87e-05 s⁻¹. In assay [1], this molecule registered a kon of 435000 M⁻¹ s⁻¹.
